Experimental data as given in patent US8026218.
Bridge positions count the residues as written; N and C are the ends. Square brackets hold non-standard residues; d marks the D form. Primed or numbered codes have the meaning given here. Ends that are not written are not given here. * marks the point of attachment. O‑Bzl(CF3)2 = C-terminal bis(trifluoromethyl)benzyl ester; Glc = O-glucosyl on Ser side chain (Ser(OGlu)/Ser(OGlc)); NH(3,5-(CF3)2-benzyl) = FC(F)(F)c1cc(CN*)cc(C(F)(F)F)c1; OBzl(3,5-(CF3)2) = FC(F)(F)c1cc(CO*)cc(C(F)(F)F)c1; O‑Bzl(CF3)2(3) = C-terminal O-Bzl(CF3)2 ester; NH‑Bn(CF3)2 = C-terminal Bn(CF3)2 amide; Dmt = Cc1cc(O)cc(C)c1C[C@H](N)C(=O)O; Met(O) = CS(=O)CC[C@H](N)C(=O)O; dPen = CC(C)(S)[C@@H](N)C(=O)O; NMe(benzyl) = CN(Cc1ccccc1)*; Pen = CC(C)(S)[C@H](N)C(=O)O; Nle = CCCC[C@H](N)C(=O)O; Abu = CC[C@H](N)C(=O)O; NHBn = c1ccc(CN*)cc1; OBn = c1ccc(CO*)cc1; βAla = NCCC(=O)O

Tests used:
[1] = target: rat µ opioid receptor (rat) (UniProt P33535); experiment: radioligand competition vs [3H]DAMGO, membranes of rMOR cells
[2] = target: δ opioid receptor of the mouse isolated vas deferens (mouse), P32300; experiment: cell-based or functional assay
[3] = target: human NK1 receptor (human) (UniProt P25103); experiment: radioligand competition vs [3H]substance P, membranes of hNK1 CHO cells
[4] = target: human δ opioid receptor (human) (UniProt P41143); experiment: cell-based or functional assay
[5] = target: rat µ opioid receptor (rat) (UniProt P33535); experiment: cell-based or functional assay
[6] = target: human δ opioid receptor (human) (UniProt P41143); experiment: radioligand competition vs [3H]DPDPE, membranes of hDOR cells
rat NK1 receptor (rat) [7] = target: rat NK1 receptor (rat) (UniProt P14600); experiment: radioligand competition vs [3H]substance P, membranes of rNK1 CHO cells
[8] = target: human δ opioid receptor (human) (UniProt P41143); experiment: competition vs [3H]DPDPE, hDOR cell membranes
rat NK1 receptor (rat) [9] = target: rat NK1 receptor (rat) (UniProt P14600); experiment: competition vs [3H]Substance P, rNK1 CHO cell membranes
[10] = target: human NK1 receptor (human) (UniProt P25103); experiment: competition vs [3H]Substance P, hNK1 CHO cell membranes
[11] = target: rat µ opioid receptor (rat) (UniProt P33535); experiment: competition vs [3H]DAMGO, rMOR cell membranes
[12] = target: δ opioid receptor of the mouse isolated vas deferens (mouse) (UniProt P32300); experiment: cell-based or functional assay
[13] = target: guinea pig NK1 receptor (guinea pig) (UniProt P30547); experiment: cell-based or functional assay
[14] = target: µ opioid receptor of the guinea pig isolated ileum (guinea pig) (UniProt P97266); experiment: cell-based or functional assay
Sequence of µ opioid receptor of the guinea pig isolated ileum (guinea pig) (P97266 whole entry): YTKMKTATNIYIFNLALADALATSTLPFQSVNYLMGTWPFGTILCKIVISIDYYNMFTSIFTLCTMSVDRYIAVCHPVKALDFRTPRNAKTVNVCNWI

Sequence of rat µ opioid receptor (rat) (P33535 whole entry): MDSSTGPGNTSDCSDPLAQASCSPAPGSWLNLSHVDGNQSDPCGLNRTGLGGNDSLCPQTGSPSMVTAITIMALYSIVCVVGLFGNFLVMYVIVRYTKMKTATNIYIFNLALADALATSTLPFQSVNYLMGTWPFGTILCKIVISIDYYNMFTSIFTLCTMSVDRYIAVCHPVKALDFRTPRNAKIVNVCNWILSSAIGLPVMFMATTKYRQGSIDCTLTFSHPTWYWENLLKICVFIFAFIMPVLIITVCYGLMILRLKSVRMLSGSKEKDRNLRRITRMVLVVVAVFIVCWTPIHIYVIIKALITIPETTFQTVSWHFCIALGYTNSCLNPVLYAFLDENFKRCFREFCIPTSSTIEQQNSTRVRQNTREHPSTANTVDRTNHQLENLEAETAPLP
Sequence of human δ opioid receptor (human) (P41143 whole entry, stated change not applied): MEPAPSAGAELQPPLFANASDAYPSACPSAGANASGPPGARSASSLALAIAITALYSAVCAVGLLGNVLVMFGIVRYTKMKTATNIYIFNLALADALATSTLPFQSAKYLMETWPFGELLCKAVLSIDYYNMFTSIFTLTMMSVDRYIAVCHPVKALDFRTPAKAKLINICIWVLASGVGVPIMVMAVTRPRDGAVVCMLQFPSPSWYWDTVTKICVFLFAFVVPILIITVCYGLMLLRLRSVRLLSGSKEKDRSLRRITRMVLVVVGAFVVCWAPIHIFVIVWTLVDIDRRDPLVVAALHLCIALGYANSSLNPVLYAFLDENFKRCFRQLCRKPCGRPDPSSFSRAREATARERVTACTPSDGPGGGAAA
Sequence of δ opioid receptor of the mouse isolated vas deferens (mouse), P32300 (P32300 whole entry, stated change not applied): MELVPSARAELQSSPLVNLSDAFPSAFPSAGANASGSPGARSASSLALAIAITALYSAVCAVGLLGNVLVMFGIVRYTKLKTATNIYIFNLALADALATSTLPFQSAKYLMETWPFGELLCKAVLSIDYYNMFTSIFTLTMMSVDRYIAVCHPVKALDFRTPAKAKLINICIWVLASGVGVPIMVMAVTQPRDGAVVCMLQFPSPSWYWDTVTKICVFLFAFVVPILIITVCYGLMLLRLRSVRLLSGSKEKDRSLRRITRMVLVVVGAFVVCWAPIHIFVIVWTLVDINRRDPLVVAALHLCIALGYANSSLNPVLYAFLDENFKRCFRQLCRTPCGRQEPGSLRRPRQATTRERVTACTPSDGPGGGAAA
Sequence of δ opioid receptor of the mouse isolated vas deferens (mouse) (P32300 whole entry, stated change not applied): as above
Sequence of guinea pig NK1 receptor (guinea pig) (P30547 whole entry): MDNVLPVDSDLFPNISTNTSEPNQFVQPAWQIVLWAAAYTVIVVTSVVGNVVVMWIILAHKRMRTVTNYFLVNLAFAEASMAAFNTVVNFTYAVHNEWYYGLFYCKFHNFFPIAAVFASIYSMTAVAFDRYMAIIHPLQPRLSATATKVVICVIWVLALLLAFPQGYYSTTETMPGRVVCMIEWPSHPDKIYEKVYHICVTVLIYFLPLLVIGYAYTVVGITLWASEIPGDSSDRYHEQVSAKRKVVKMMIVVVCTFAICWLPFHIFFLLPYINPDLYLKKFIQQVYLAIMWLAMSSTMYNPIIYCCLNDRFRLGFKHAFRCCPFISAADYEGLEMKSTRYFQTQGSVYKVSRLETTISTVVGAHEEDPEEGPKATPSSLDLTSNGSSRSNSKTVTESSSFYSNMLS
Sequence of human NK1 receptor (human) (P25103 whole entry): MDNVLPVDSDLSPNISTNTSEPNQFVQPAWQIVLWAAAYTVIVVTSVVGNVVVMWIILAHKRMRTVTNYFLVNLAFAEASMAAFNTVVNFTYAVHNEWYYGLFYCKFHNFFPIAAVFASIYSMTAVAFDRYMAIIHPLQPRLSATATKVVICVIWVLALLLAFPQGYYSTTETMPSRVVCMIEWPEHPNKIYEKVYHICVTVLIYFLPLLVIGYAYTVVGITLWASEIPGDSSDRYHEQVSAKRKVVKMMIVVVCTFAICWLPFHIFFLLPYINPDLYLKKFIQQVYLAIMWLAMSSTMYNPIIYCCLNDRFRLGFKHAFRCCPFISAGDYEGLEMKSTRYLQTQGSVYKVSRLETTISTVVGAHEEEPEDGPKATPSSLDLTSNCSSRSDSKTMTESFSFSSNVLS
Sequence of rat NK1 receptor (rat) (P14600 whole entry): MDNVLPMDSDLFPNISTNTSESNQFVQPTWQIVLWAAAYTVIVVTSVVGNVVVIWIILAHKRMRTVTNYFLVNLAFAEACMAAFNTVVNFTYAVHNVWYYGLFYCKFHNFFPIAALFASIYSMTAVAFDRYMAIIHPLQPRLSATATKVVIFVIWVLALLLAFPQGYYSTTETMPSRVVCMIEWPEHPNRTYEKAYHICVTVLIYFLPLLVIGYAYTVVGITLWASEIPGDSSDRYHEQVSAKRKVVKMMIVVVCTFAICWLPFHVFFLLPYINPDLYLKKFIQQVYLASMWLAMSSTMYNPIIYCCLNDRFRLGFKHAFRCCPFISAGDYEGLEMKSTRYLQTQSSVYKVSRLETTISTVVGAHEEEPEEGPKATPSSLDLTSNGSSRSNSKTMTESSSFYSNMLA

Y[dC]GF[Nle]P[dC]W-{NH(3,5-(CF3)2-benzyl)} (disulfide 2-7) [Tyr[DCysGlyPheNleProDCys]TrpNHBn(CF3)2 (TY038)]
Ki [1]: 156 nM | MVD opioid(delta) agonist IC50 [2]: 18.9 nM | Ki [3]: 0.24 nM | GTP binding hDOR EC50 [4]: 14 nM | GTP binding hDOR Emax [4]: 87% | GTP binding rMOR EC50 [5]: 21.7 nM | GTP binding rMOR Emax [5]: 11% | Ki [6]: 55.5 nM | Ki (rat NK1 receptor (rat) [7]): 7.11 nM

Y[dC]GFCPLW-{NH(3,5-(CF3)2-benzyl)} (disulfide 2-5) [Tyr[DCysGlyPheCys]ProLeuTrpNHBn(CF3)2 (TY039)]
MVD opioid(delta) agonist IC50 [2]: 73.1 nM

B1: TyrDAlaGlyPheNleProLeuTrpOBn(CF3)2 (TY018) (peptide)
peptide: YAGFXPLW
modifications: here or on the partner: D-Ala at 2; Nle (norleucine) at 5 (X); C-terminal O-3,5-Bn(CF3)2 ester
MVD opioid(delta) agonist IC50 [2]: 16.8 nM

Y[dA]GFMPLW-OBn [TyrDAlaGlyPheMetProLeuTrpOBn (TY029)]
MVD opioid(delta) agonist IC50 [2]: 7.62 nM

H-Y[dA]GF[Met(O)]PLW-{OBzl(3,5-(CF3)2)} (also: TFA salt) [H-Tyr-D-Ala-Gly-Phe-Met(O)-Pro-Leu-Trp-O-3,5-Bzl(CF3)2]
MVD (δ) opioid agonist IC50 [2]: 33 nM

Y[dPen]GF[Nle]P[Pen]W-{NH(3,5-(CF3)2-benzyl)} (disulfide 2-7) [Tyr[DPenGlyPheNleProPen]TrpNHBn(CF3)2]
Ki [8]: 152 nM | Ki (rat NK1 receptor (rat) [9]): 163 nM | GTP binding EC50 [5]: 2910 nM | GTP binding Emax [5]: 15% | Ki [10]: 59 nM | Ki [11]: 1970 nM

[Dmt][dA]GFMPLW-{OBzl(3,5-(CF3)2)} [DmtDAlaGlyPheMetProLeuTrpOBn(CF3)2 (TY033)]
MVD opioid(delta) agonist IC50 [2]: 1.27 nM

Y[dA]GFLW-{O‑Bzl(CF3)2} [Tyr-DAla-Gly-Phe-Leu-Trp-O-Bzl(CF3)2 (NP37)]
MVD δ-agonist IC50 [12]: 25.7 nM

H-Y[dA]GFGPLW-{OBzl(3,5-(CF3)2)} (also: TFA salt) [H-Tyr-D-Ala-Gly-Phe-Gly-Pro-Leu-Trp-O-3,5-Bzl(CF3)2]
MVD (δ) opioid agonist IC50 [2]: 172 nM

Y[dA]GFMPLW-OH [TyrDAlaGlyPheMetProLeuTrpOH (TY043)]
MVD opioid(delta) agonist IC50 [2]: 8.18 nM

B2: TyrDAlaGlyPheSer(OGlu)ProLeuTrpNHBn(CF3)2 (TY042) (peptide)
peptide: Y[dA]GFSPLW-{NH(3,5-(CF3)2-benzyl)}
modifications: not fully specified (residue 5); printed as TyrDAlaGlyPheSer(OGlu)ProLeuTrpNHBn(CF3)2
MVD opioid(delta) agonist IC50 [2]: 109 nM

YAGFXPLW (here or on the partner: D-Ala at 2; Nle at 5 (X); C-terminal NH-Bn(CF3)2 amide) [TyrDAlaGlyPheNleProLeuTrpNHBn(CF3)2 (TY045)]
MVD opioid(delta) agonist IC50 [2]: 13.6 nM

Y[dA]GFPW-{O‑Bzl(CF3)2} [Tyr-DAla-Gly-Phe-Pro-Trp-O-Bzl(CF3)2 (NP39)]
GPI/LMMP SP antagonist Ke [13]: 1.8 nM | MVD δ-agonist IC50 [12]: 84.6 nM

Y[dA]GF[βAla]W-{O‑Bzl(CF3)2(3)} [Tyr-DAla-Gly-Phe-β-Ala-Trp-O-Bzl(CF3)2 (NP32)]
GPI/LMMP SP antagonist Ke [13]: 250 nM | MVD δ-agonist IC50 [12]: 12.6 nM | GPI/LMMP µ-agonist IC50 [14]: 435 nM

[Dmt][dA]GFMPLW-NHBn [DmtDAlaGlyPheMetProLeuTrpNHBn (TY034)]
MVD opioid(delta) agonist IC50 [2]: 6.85 nM

Y[dA]GFMW-{O‑Bzl(CF3)2} [Tyr-DAla-Gly-Phe-Met-Trp-O-Bzl(CF3)2 (NP38)]
GPI/LMMP SP antagonist Ke [13]: 2 nM | MVD δ-agonist IC50 [12]: 9.07 nM

Y[dA]GFAW-{O‑Bzl(CF3)2(3)} [Tyr-DAla-Gly-Phe-Ala-Trp-O-Bzl(CF3)2 (NP31)]
GPI/LMMP SP antagonist Ke [13]: 18.6 nM | MVD δ-agonist IC50 [12]: 6.4 nM | GPI/LMMP µ-agonist IC50 [14]: 401 nM

Y[dA]GF[dF]PLW-{OBzl(3,5-(CF3)2)} [TyrDAlaGlyPheDPheProLeuTrpOBn(CF3)2 (TY007)]
MVD opioid(delta) agonist IC50 [2]: 412 nM

Y[dA]GW-{OBzl(3,5-(CF3)2)} [Tyr-D-Ala-Gly-Trp-O-3′,5′(CF3)2-Bzl (NP44)]
GPI SP-antagonist Ke [13]: 5 nM | MVD δ-agonist IC50 [12]: 303 nM

Y[dA]GFMPLW-{NMe(benzyl)} [TyrDAlaGlyPheMetProLeuTrpNMeBn (TY026)]
MVD opioid(delta) agonist IC50 [2]: 7.89 nM

Y[dPen]GF[Nle]P[Pen]W-{NH‑Bn(CF3)2} (disulfide 2-7) [Tyr[DPenGlyPheNleProPen]TrpNHBn(CF3)2 (TY047)]
Ki [1]: 1970 nM | Ki [3]: 59 nM | GTP binding rMOR EC50 [5]: 2910 nM | GTP binding rMOR Emax [5]: 15% | Ki [6]: 152 nM | Ki (rat NK1 receptor (rat) [7]): 163 nM

[Dmt][dA]GF[Nle]PS(Glc)W-{NH‑Bn(CF3)2} [DmtDAlaGlyPheNleProSer(OGlu)TrpNHBn(CF3)2 (TY056)]
MVD opioid(delta) agonist IC50 [2]: 3.62 nM

Y[dA]GF[Abu]W-{O‑Bzl(CF3)2(3)} [Tyr-DAla-Gly-Phe-α-Abu-Trp-O-Bzl(CF3)2 (NP33)]
GPI/LMMP SP antagonist Ke [13]: 5.6 nM | MVD δ-agonist IC50 [12]: 12.4 nM | GPI/LMMP µ-agonist IC50 [14]: 600 nM
